Data taken from article PMC4041450.

B1: SRA RNA H12-H13 extended (structured_RNA)
RNA: GGGAGCAGGUAUGUGAUGACAUCAGCCGACGCCUGGCACUGCUGCAGGAACAGUGGGCUGGAGGAAAGUUGUCAAUACCUGUAAGAGACCGAAUUCACUGGCCGUCGUUUUACAACGUCGUGACUGGGAAAAC

Legend:
GST-His-SHARP R3-4h = target: T1, GST-His-SHARP R3-4h (Homo sapiens, UniProt Q96T58 436-620); assay: UV crosslinking
T1 sequence: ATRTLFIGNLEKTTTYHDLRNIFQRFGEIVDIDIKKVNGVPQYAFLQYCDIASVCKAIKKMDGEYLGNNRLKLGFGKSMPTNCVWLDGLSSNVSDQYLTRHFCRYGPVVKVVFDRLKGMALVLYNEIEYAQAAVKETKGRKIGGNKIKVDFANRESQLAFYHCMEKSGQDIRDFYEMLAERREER

[1] = target: T2, SHARP R2-3-4h (SHARP-RRM) (Homo sapiens, UniProt Q96T58 335-620); assay: competition
T2 sequence: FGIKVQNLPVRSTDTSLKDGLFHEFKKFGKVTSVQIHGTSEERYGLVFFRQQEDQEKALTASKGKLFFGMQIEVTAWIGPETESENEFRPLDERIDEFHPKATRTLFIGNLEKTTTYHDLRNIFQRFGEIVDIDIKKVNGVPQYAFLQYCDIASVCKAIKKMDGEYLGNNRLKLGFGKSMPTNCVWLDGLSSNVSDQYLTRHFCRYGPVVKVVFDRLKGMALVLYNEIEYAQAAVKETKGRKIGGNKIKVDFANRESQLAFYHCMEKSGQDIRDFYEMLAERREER

Binder | binding result (GST-His-SHARP R3-4h) | binding result [1]
B1 | binds | 
AAAAAAAAAAAAAAA (ssRNA) [A15] |  | no binding
